Test results published in patent US20230406951A1 (Pfizer, published 2023).

Assays:
[1] = target: T1, human TNFR2 (human, UniProt P20333 23-461); experiment: binding to CHO cells over-expressing human TNFR2
T1 construct: Human TNFR2 over-expressed on CHO cells, full length on transduced NF-KB-GFP Jurkat cells, or native on human primary T cells; also called Hu TNFR2; TNFRSF1B
T1 sequence: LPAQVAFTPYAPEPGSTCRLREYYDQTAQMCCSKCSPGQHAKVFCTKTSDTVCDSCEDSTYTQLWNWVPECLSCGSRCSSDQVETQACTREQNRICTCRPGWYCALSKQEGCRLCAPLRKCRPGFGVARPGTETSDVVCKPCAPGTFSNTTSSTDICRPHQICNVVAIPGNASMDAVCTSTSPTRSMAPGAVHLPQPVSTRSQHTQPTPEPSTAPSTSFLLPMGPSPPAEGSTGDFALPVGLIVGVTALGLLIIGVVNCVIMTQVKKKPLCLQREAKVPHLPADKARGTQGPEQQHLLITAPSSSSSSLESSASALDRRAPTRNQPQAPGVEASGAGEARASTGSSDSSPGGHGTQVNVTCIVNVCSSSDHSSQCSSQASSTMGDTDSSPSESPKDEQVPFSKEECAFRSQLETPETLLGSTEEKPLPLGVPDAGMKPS

[2] = target: T2, human TNFR2 (human, UniProt P20333 23-461); experiment: binding to human TNFR2 CHO cells, IgG format; IgG format, light chain Q89L
T2 construct: expressed on the surface of CHO cells; also called HuTNFR2; TNFRSF1B
T2 sequence: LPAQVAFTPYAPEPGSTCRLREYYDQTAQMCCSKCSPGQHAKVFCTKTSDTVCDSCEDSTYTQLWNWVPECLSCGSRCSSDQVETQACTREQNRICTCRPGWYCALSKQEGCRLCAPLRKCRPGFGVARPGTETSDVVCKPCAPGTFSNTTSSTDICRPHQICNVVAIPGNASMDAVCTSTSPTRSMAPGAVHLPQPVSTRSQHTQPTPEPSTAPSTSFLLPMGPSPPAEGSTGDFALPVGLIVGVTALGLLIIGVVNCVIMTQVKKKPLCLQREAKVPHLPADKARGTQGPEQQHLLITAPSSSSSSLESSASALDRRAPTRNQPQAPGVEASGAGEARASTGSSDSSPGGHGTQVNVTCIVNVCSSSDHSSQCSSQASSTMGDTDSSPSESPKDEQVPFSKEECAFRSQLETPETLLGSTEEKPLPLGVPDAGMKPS

[3] = target: T2, human TNFR2; experiment: binding to human TNFR2 CHO cells, IgG format; IgG format, light chain Q89L, Y91K

B1: clone 825 (antibody, V domains shown)
VH: QVQLKESGPGLVAPSQSLSITCTVSGFSFPSSGVDWVRQSPGKGLEWLGVTWGVGSTHYNSALKSRLSISKDNSKSQVFLKMNSLQTEDTAIYYCASGEWDEGFVYWGQGTLVTVSA
VL: DIVMTQSQKFMSTTVGDRVSITCKASQNVGTAVAWYQQKPGQSPKLLIYSASNRYTGVPDRFTGSGSGTDFTLTISNMQSEDLADYFCQQYSSYPLTFGGGTKLEIK
notes: human IgG1 (L234A, L235A, G237A, EU), kappa
B1 gave an EC50 [1] of 0.0698 µg/mL.

B2: IgG2205 (antibody, V domains shown)
VH: QVQLVQSGAEVKKPGASVKVSCKVSGFSFPSSGVDWVRQAPGQGLEWLGVTWGVGSTHYNQKFQGRVTITKDTSKSTVYMELSSLRSEDTAVYYCASGEWDEGFVYWGQGTLVTVSS
VL: DIQLTQSPSFLSASVGDRVTITCKASQNVGTAVAWYQQKPGKAPKLLIYAASTLQSGVPSRFSGSGSGTEFTLTISSLQPEDFATYYCLQYSSYPLTFGGGTKVEIKR
notes: IgG
With B2 the EC50 [2] was 0.43 nM.

B3: IgG 2204 (antibody, V domains shown)
VH: QVQLVQSGAEVKKPGASVKVSCKVSGFSFPSSGVDWVRQAPGQGLEWLGVTWGVGSTHYNQKFQGRVTITKDTSKSTVYMELSSLRSEDTAVYYCASGEWDEGFVYWGQGTLVTVSS
VL: DIQLTQSPSFLSASVGDRVTITCKASQNVGTAVAWYQQKPGKAPKLLIYAASTLQSGVPSRFSGSGSGTEFTLTISSLQPEDFATYYCLQKSSYPLTFGGGTKVEIKR
notes: IgG
B3 showed an EC50 [3] of 1.63 nM.
